According to PMC6880163 (Journal of Virology, 2019):
Changes are numbered by the printed parent chain. Names and notes keep the numbering of the source.

B1: TagRFP/TRIM69 V95A L96A double mutant (natural protein, human, UniProt Q86WT6 1-500, looked up)
chain: MEVSTNPSSNIDPGDYVEMNDSITHLPSKVVIQDITMELHCPLCNDWFRDPLMLSCGHNFCEACIQDFWRLQAKETFCPECKMLCQYNNCTFNPAADKLVEKIKKLPLLKGHPQCPEHGENLKLFSKPDGKLICFQCKDARLSVGQSKEFLQISDAVHFFTEELAIQQGQLETTLKELQTLRNMQKEAIAAHKENKLHLQQHVSMEFLKLHQFLHSKEKDILTELREEGKALNEEMELNLSQLQEQCLLAKDMLVSIQAKTEQQNSFDFLKDITTLLHSLEQGMKVLATRELISRKLNLGQYKGPIQYMVWREMQDTLCPGLSPLTLDPKTAHPNLVLSKSQTSVWHGDIKKIMPDDPERFDSSVAVLGSRGFTSGKWYWEVEVAKKTKWTVGVVRESIIRKGSCPLTPEQGFWLLRLRNQTDLKALDLPSFSLTLTNNLDKVGIYLDYEGGQLSFYNAKTMTHIYTFSNTFMEKLYPYFCPCLNDGGENKEPLHILHPQ
notes: also called multimerization-defective mutant of TRIM69; not shown: TagRFP, N-terminal, kept
B2: TagRFP/TRIM69 L99A single mutant (natural protein, human, UniProt Q86WT6 1-500, looked up)
chain: B1 chain with A95V, A96L, L99A
notes: as for B1

Molecular target: the molecule itself
Test: cross-linking; intact doxycycline-induced HT1080 cells in 1x PBS treated with 0.2 mM EGS (membrane-permeable) for 30 min at room temperature, lysed in LDS sample buffer, Western blot with anti-RFP antibody

| Protein | stoichiometry N |
| --- | --- |
| B1 | 2 |
| B2 | 2 |
